Reference: patent US20210032299A1
Starred links: 1 amine or outer side, 2 acyl side, 3 side chain; linkers in the order of their positions; H or OH if unused. Non-standard residues stand in square brackets, D forms with d. Groups on a side chain read outwards from the residue. No end group written: not given here. *: point of attachment. C20 diacid = O=C(O)CCCCCCCCCCCCCCCCCCC(=O)*; C18 diacid = O=C(O)CCCCCCCCCCCCCCCCC(=O)*; αMePhe(2-F) = C[C@](N)(Cc1ccccc1F)C(=O)O; γGlu = O=C(O)[C@H](CCC(=O)[*:2])N[*:1]; αMeF = C[C@](N)(Cc1ccccc1)C(=O)O; 4Pal = N[C@@H](Cc1ccncc1)C(=O)O; αMeL = CC(C)C[C@](C)(N)C(=O)O; Orn = NCCC[C@H](N)C(=O)O; AEEA = NCCOCCOCC(=O)O; Aib = CC(C)(N)C(=O)O

Tests used:
[1] = target: human glucagon receptor (human), P47871; test: SPA, displacement of [125I]-Gcg from hGcgR membranes, 0.1% bacitracin
Chain of human glucagon receptor (human), P47871 (P47871 26-477): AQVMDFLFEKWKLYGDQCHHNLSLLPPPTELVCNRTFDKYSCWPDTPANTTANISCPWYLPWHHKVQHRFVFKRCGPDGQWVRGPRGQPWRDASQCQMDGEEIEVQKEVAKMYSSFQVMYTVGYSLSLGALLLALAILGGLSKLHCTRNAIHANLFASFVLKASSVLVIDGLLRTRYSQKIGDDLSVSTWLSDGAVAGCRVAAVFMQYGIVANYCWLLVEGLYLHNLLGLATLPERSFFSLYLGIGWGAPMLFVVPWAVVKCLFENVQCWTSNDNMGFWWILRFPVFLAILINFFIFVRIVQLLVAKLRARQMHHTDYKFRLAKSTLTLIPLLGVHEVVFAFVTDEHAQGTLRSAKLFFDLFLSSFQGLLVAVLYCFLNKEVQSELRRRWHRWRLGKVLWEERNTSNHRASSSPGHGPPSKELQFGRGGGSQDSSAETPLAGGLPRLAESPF

[2] = target: T1, human glucose-dependent insulinotropic polypeptide (GIP) receptor (human), P48546; test: SPA, displacement of [125I]-GIP from hGIPR membranes, 0.1% bacitracin
T1 chain: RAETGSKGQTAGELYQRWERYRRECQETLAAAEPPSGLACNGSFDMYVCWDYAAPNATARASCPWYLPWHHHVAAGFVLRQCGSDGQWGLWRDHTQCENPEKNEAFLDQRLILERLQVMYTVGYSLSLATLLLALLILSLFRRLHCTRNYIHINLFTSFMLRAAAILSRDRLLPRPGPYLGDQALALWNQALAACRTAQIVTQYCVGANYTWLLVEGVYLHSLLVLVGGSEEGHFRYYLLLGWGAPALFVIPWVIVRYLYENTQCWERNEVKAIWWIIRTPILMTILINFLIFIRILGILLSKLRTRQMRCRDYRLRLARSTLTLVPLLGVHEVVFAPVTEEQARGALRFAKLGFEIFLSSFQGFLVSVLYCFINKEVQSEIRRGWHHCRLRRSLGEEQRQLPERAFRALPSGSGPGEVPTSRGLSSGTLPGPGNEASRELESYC

[3] = target: T2, human GLP-1 receptor (human), P43220; test: SPA, displacement of [125I]-GLP-1 from hGLP-1R membranes, 0.1% bacitracin
T2 chain: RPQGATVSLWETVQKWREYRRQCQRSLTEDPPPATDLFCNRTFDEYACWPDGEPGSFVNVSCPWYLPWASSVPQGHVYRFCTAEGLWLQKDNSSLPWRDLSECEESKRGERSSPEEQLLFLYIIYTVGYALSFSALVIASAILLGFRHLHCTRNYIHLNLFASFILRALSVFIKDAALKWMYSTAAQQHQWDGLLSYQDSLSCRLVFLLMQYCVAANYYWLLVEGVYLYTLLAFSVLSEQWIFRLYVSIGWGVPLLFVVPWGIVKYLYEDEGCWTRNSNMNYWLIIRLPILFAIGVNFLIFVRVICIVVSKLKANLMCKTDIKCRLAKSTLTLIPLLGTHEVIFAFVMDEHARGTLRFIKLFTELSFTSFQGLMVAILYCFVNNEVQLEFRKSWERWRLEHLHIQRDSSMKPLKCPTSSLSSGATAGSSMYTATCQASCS

B1: Example 4 (peptide)
peptide: Y[Aib]EGTFISDYSI[αMeL]LD[Orn]K([AEEA-AEEA-γGlu-C20 diacid])HQ[Aib]DFVE[4Pal]LLEAGPSSGAPPPS-NH2
modifications: N-terminus assumed
SMILES: CC[C@H](C)[C@H](NC(=O)[C@H](Cc1ccccc1)NC(=O)[C@@H](NC(=O)CNC(=O)[C@H](CCC(=O)O)NC(=O)C(C)(C)NC(=O)[C@@H](N)Cc1ccc(O)cc1)[C@@H](C)O)C(=O)N[C@@H](CO)C(=O)N[C@@H](CC(=O)O)C(=O)N[C@@H](Cc1ccc(O)cc1)C(=O)N[C@@H](CO)C(=O)N[C@H](C(=O)N[C@@](C)(CC(C)C)C(=O)N[C@@H](CC(C)C)C(=O)N[C@@H](CC(=O)O)C(=O)N[C@@H](CCCN)C(=O)N[C@@H](CCCCNC(=O)COCCOCCNC(=O)COCCOCCNC(=O)CC[C@H](NC(=O)CCCCCCCCCCCCCCCCCCC(=O)O)C(=O)O)C(=O)N[C@@H](Cc1c[nH]cn1)C(=O)N[C@@H](CCC(N)=O)C(=O)NC(C)(C)C(=O)N[C@@H](CC(=O)O)C(=O)N[C@@H](Cc1ccccc1)C(=O)N[C@H](C(=O)N[C@@H](CCC(=O)O)C(=O)N[C@@H](Cc1ccncc1)C(=O)N[C@@H](CC(C)C)C(=O)N[C@@H](CC(C)C)C(=O)N[C@@H](CCC(=O)O)C(=O)N[C@@H](C)C(=O)NCC(=O)N1CCC[C@H]1C(=O)N[C@@H](CO)C(=O)N[C@@H](CO)C(=O)NCC(=O)N[C@@H](C)C(=O)N1CCC[C@H]1C(=O)N1CCC[C@H]1C(=O)N1CCC[C@H]1C(=O)N[C@@H](CO)C(N)=O)C(C)C)[C@@H](C)CC
Ki [1]: 431 nM
Ki [2]: 0.062 nM
Ki [3]: 423 nM

Y[Aib]EGTFISDYSI[αMeL]LD[Orn]IHQ[Aib]DFVEYK([AEEA-AEEA-γGlu-C20 diacid])LEGGPSSGAPPPS-NH2 [Example 6]
Ki [1]: 453 nM
Ki [2]: 0.104 nM
Ki [3]: 571 nM

B2: Example 87 (peptide)
peptide: Y[Aib]EGTFISDYSI[αMeL]LD[Orn]K([AEEA-AEEA-γGlu-C18 diacid])HQ[Aib]DFVE[4Pal]LLEAGPSSGAPPPS-NH2
modifications: N-terminus assumed
SMILES: CC[C@H](C)[C@H](NC(=O)[C@H](Cc1ccccc1)NC(=O)[C@@H](NC(=O)CNC(=O)[C@H](CCC(=O)O)NC(=O)C(C)(C)NC(=O)[C@@H](N)Cc1ccc(O)cc1)[C@@H](C)O)C(=O)N[C@@H](CO)C(=O)N[C@@H](CC(=O)O)C(=O)N[C@@H](Cc1ccc(O)cc1)C(=O)N[C@@H](CO)C(=O)N[C@H](C(=O)N[C@@](C)(CC(C)C)C(=O)N[C@@H](CC(C)C)C(=O)N[C@@H](CC(=O)O)C(=O)N[C@@H](CCCN)C(=O)N[C@@H](CCCCNC(=O)COCCOCCNC(=O)COCCOCCNC(=O)CC[C@H](NC(=O)CCCCCCCCCCCCCCCCC(=O)O)C(=O)O)C(=O)N[C@@H](Cc1c[nH]cn1)C(=O)N[C@@H](CCC(N)=O)C(=O)NC(C)(C)C(=O)N[C@@H](CC(=O)O)C(=O)N[C@@H](Cc1ccccc1)C(=O)N[C@H](C(=O)N[C@@H](CCC(=O)O)C(=O)N[C@@H](Cc1ccncc1)C(=O)N[C@@H](CC(C)C)C(=O)N[C@@H](CC(C)C)C(=O)N[C@@H](CCC(=O)O)C(=O)N[C@@H](C)C(=O)NCC(=O)N1CCC[C@H]1C(=O)N[C@@H](CO)C(=O)N[C@@H](CO)C(=O)NCC(=O)N[C@@H](C)C(=O)N1CCC[C@H]1C(=O)N1CCC[C@H]1C(=O)N1CCC[C@H]1C(=O)N[C@@H](CO)C(N)=O)C(C)C)[C@@H](C)CC
Ki [1]: 576 nM
Ki [2]: 0.0538 nM
Ki [3]: 849 nM

B3: Example 95 (peptide)
peptide: Y[Aib]EGT[αMePhe(2-F)]ISDYSIALDKIHQ[Aib]EFVNYK([AEEA-AEEA-γGlu-C20 diacid])LEGGPSSGAPPPS-NH2
modifications: N-terminus assumed
SMILES: CC[C@H](C)[C@H](NC(=O)[C@H](CO)NC(=O)[C@H](Cc1ccc(O)cc1)NC(=O)[C@H](CC(=O)O)NC(=O)[C@H](CO)NC(=O)[C@@H](NC(=O)[C@](C)(Cc1ccccc1F)NC(=O)[C@@H](NC(=O)CNC(=O)[C@H](CCC(=O)O)NC(=O)C(C)(C)NC(=O)[C@@H](N)Cc1ccc(O)cc1)[C@@H](C)O)[C@@H](C)CC)C(=O)N[C@@H](C)C(=O)N[C@@H](CC(C)C)C(=O)N[C@@H](CC(=O)O)C(=O)N[C@@H](CCCCN)C(=O)N[C@H](C(=O)N[C@@H](Cc1c[nH]cn1)C(=O)N[C@@H](CCC(N)=O)C(=O)NC(C)(C)C(=O)N[C@@H](CCC(=O)O)C(=O)N[C@@H](Cc1ccccc1)C(=O)N[C@H](C(=O)N[C@@H](CC(N)=O)C(=O)N[C@@H](Cc1ccc(O)cc1)C(=O)N[C@@H](CCCCNC(=O)COCCOCCNC(=O)COCCOCCNC(=O)CC[C@H](NC(=O)CCCCCCCCCCCCCCCCCCC(=O)O)C(=O)O)C(=O)N[C@@H](CC(C)C)C(=O)N[C@@H](CCC(=O)O)C(=O)NCC(=O)NCC(=O)N1CCC[C@H]1C(=O)N[C@@H](CO)C(=O)N[C@@H](CO)C(=O)NCC(=O)N[C@@H](C)C(=O)N1CCC[C@H]1C(=O)N1CCC[C@H]1C(=O)N1CCC[C@H]1C(=O)N[C@@H](CO)C(N)=O)C(C)C)[C@@H](C)CC
Ki [1]: 85 nM
Ki [2]: 0.0255 nM
Ki [3]: 832 nM

B4: Example 97 (peptide)
peptide: Y[Aib]EGT[αMeF]ISDYSIALDKIHQ[Aib]EFVNYK([AEEA-AEEA-γGlu-C20 diacid])LAGGPSSGAPPPS-NH2
modifications: N-terminus assumed
SMILES: CC[C@H](C)[C@H](NC(=O)[C@H](CO)NC(=O)[C@H](Cc1ccc(O)cc1)NC(=O)[C@H](CC(=O)O)NC(=O)[C@H](CO)NC(=O)[C@@H](NC(=O)[C@](C)(Cc1ccccc1)NC(=O)[C@@H](NC(=O)CNC(=O)[C@H](CCC(=O)O)NC(=O)C(C)(C)NC(=O)[C@@H](N)Cc1ccc(O)cc1)[C@@H](C)O)[C@@H](C)CC)C(=O)N[C@@H](C)C(=O)N[C@@H](CC(C)C)C(=O)N[C@@H](CC(=O)O)C(=O)N[C@@H](CCCCN)C(=O)N[C@H](C(=O)N[C@@H](Cc1c[nH]cn1)C(=O)N[C@@H](CCC(N)=O)C(=O)NC(C)(C)C(=O)N[C@@H](CCC(=O)O)C(=O)N[C@@H](Cc1ccccc1)C(=O)N[C@H](C(=O)N[C@@H](CC(N)=O)C(=O)N[C@@H](Cc1ccc(O)cc1)C(=O)N[C@@H](CCCCNC(=O)COCCOCCNC(=O)COCCOCCNC(=O)CC[C@H](NC(=O)CCCCCCCCCCCCCCCCCCC(=O)O)C(=O)O)C(=O)N[C@@H](CC(C)C)C(=O)N[C@@H](C)C(=O)NCC(=O)NCC(=O)N1CCC[C@H]1C(=O)N[C@@H](CO)C(=O)N[C@@H](CO)C(=O)NCC(=O)N[C@@H](C)C(=O)N1CCC[C@H]1C(=O)N1CCC[C@H]1C(=O)N1CCC[C@H]1C(=O)N[C@@H](CO)C(N)=O)C(C)C)[C@@H](C)CC
Ki [1]: 77.5 nM
Ki [2]: 0.0249 nM
Ki [3]: 570 nM

B5: Example 98 (peptide)
peptide: Y[Aib]EGT[αMePhe(2-F)]ISDYSIALDKIHQ[Aib]EFVNYK([AEEA-AEEA-γGlu-C20 diacid])LAGGPSSGAPPPS-NH2
modifications: N-terminus assumed
SMILES: CC[C@H](C)[C@H](NC(=O)[C@H](CO)NC(=O)[C@H](Cc1ccc(O)cc1)NC(=O)[C@H](CC(=O)O)NC(=O)[C@H](CO)NC(=O)[C@@H](NC(=O)[C@](C)(Cc1ccccc1F)NC(=O)[C@@H](NC(=O)CNC(=O)[C@H](CCC(=O)O)NC(=O)C(C)(C)NC(=O)[C@@H](N)Cc1ccc(O)cc1)[C@@H](C)O)[C@@H](C)CC)C(=O)N[C@@H](C)C(=O)N[C@@H](CC(C)C)C(=O)N[C@@H](CC(=O)O)C(=O)N[C@@H](CCCCN)C(=O)N[C@H](C(=O)N[C@@H](Cc1c[nH]cn1)C(=O)N[C@@H](CCC(N)=O)C(=O)NC(C)(C)C(=O)N[C@@H](CCC(=O)O)C(=O)N[C@@H](Cc1ccccc1)C(=O)N[C@H](C(=O)N[C@@H](CC(N)=O)C(=O)N[C@@H](Cc1ccc(O)cc1)C(=O)N[C@@H](CCCCNC(=O)COCCOCCNC(=O)COCCOCCNC(=O)CC[C@H](NC(=O)CCCCCCCCCCCCCCCCCCC(=O)O)C(=O)O)C(=O)N[C@@H](CC(C)C)C(=O)N[C@@H](C)C(=O)NCC(=O)NCC(=O)N1CCC[C@H]1C(=O)N[C@@H](CO)C(=O)N[C@@H](CO)C(=O)NCC(=O)N[C@@H](C)C(=O)N1CCC[C@H]1C(=O)N1CCC[C@H]1C(=O)N1CCC[C@H]1C(=O)N[C@@H](CO)C(N)=O)C(C)C)[C@@H](C)CC
Ki [1]: 38.4 nM
Ki [2]: 0.0195 nM
Ki [3]: 311 nM
